The values that follow come from patent US20160116478A1 (ORDER MADE MEDICAL RESEARCH, published 2016).

Assay [1] addresses T1, partial protein of human LGR5 (amino acids 319 to 563) (human, UniProt O75473 319-563).
T1 construct: Run as crude E. coli culture lysate, denatured, on SDS-PAGE and Western blot; also called LGR5 partial protein; partial protein of LGR5; not shown: N-terminal Trx-, S- and His-tags from pET32a vector; C-terminal His-tag from pET32a vector
T1 sequence: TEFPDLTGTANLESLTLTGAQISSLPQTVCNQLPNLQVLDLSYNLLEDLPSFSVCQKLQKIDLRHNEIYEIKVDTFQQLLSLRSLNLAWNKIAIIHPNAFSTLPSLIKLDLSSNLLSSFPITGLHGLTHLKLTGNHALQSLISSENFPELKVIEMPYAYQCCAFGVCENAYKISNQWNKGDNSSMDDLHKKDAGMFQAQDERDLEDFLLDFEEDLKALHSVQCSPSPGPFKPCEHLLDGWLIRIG
The assay can be described thus: Western blot of E. coli lysate expressing the partial protein. Here is the method: (§1) After electrophoresis, the proteins were transferred onto a PVDF membrane. Skimmed milk dissolved at a concentration of 5% (w/v) in TBS-T was used to block the membrane at room temperature for 30 minutes, and the membrane was washed twice with TBS-T. Among the monoclonal antibodies obtained in Example 1. (7), Mu2C15 was diluted to 1 μg/mL with TBS-T and reacted with the membrane for 1 hour at room temperature. After washing three times with TBS-T, anti-mouse IgG polyclonal antibody-HRP label was diluted 100,000-fold with TBS-T for use as a secondary antibody. This dilution was reacted with the membrane at room temperature for 30 minutes, followed by washing three times with TBS-T. The membrane was soaked in Immobilon and then wrapped, followed by signal detection with LAS-3000 (FIG. 15b)
Background: In western blotting, separated proteins are transferred to a membrane and probed.

Assay [2] deals with T2, partial protein of human LGR4 (amino acids 311 to 577) (human, UniProt Q9BXB1 311-577).
T2 construct: Run as crude E. coli culture lysate, denatured, on SDS-PAGE and Western blot; also called LGR4 partial protein; partial protein of LGR4; not shown: N-terminal Trx-, S- and His-tags from pET32b vector; C-terminal His-tag from pET32b vector
T2 sequence: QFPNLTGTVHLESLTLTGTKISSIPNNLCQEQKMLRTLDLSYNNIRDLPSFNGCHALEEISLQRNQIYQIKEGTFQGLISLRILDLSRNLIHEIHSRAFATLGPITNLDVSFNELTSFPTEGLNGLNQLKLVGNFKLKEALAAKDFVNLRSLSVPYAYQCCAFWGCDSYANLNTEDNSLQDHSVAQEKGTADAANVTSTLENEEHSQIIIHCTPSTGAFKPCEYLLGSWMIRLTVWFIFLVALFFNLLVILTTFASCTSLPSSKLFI
Described as above. The procedure:
as §1

B1: Mu2C15 antibody (monoclonal antibody produced by Mouse-Mouse hybridoma Mu2C15) (antibody, V domains shown)
VH: QVQLQQSAAELARPGASVKMSCKASGYTFTTYTMHWVKQRPGQGLEWIGYINPNNGYTEFNQKFKDKTTLTADKSSSTAYMQLSSLTSEDSAVYYCARRDYYRFSTGFAYWGQGTLVTVSA
VL: DVVMTQTPLSLPVSLGDQASISCRSSQSLVHTNGNTYLHWYLQKPGQSPKLLIYKVSNRFSGVPDRFSGSGSGTDFTLKISRVEAEDLGVYFCSQSTHVPYTFGGGTKLEIK
notes: Mouse hybridoma antibody; Used as culture supernatant or Protein G purified, and unlabeled when immobilized in the sandwich ELISA; also called clone No. Mu2C15; anti-LGR6 antibody
As for B1, the binding result in assay [1] and in assay [2] was “no binding (tested: 1 µg/mL)” each time.
